Patent publication US20200231681A1 (CHONG KUN DANG PHARMACEUTICAL, published 2020)

Experiments:
[1] = biological target: T1, human VEGF R2 Fc chimera (R&D systems, 357-KD_CF) (human, UniProt P35968 20-764); experiment: indirect ELISA, hu8C4 at 1.200 nM
T1 construct: also called VEGFR R2
Protocol: (§1) Each antigen was diluted in 0.05 M carbonate-bicarbonate (Sigma, C3041) buffer at a concentration of 1 μg/ml, after which the resulting antigen was added into each well of a 96-well plate (Corning, #2592), such that the resulting plate was coated at 4° C. overnight. The plate was washed once with TBS-T, after which TBS-T containing 4%—skim milk was added by 200 μl into each well of the resulting plate in order to inhibit a non-specific binding, such that the resulting plate was reacted at 37° C. for 1 hour. Then, the plate was washed once with TBS-T buffer, after which a primary antibody was sequentially diluted in TBS-T buffer containing 2%—skim milk from a highest concentration of 30 nM to 0.002 nM, such that the resulting antibody was added by 100 μk into each well, thus being reacted at 37° C. for 2 hours. After being washed three times with TBS-T buffer, an anti-human kappa light chains-peroxidase (Sigma, A7164) was diluted at a ratio of 1:5000 as a secondary antibody, after which the resulting antibody was added by 100 μl into each well, thus being reacted at 37° C. for 1 hour. Then, after being washed three times with TBS-T buffer, TMB solution (Sigma, T4444) was added by 100 μl into each well to carry out an color developing reaction, after which 2 N […] solution was added by 50 μl into each well to stop the reaction. An optical density was measured based on a value at a wavelength of 450 nm by using a microplate reader and a reference wavelength of 570 nm was used.

[2] = biological target: T2, human IGF-I R (R&D systems, 391-GR-050) (human, UniProt P08069 31-932); experiment: indirect ELISA, hu8C4 at 1.200 nM
Protocol: as §1

[3] = biological target: T3, human PDGF Rβ Fc chimera (R&D systems, 385-PR_CF) (human, UniProt P09619 33-530); experiment: indirect ELISA, hu8C4 at 1.200 nM
Protocol: as §1

[4] = biological target: T4, human MSP R/Ron (R&D systems, 1947-MS-050) (human, UniProt Q04912 25-571, limits assumed); experiment: indirect ELISA, hu8C4 at 1.200 nM
Protocol: as §1

[5] = biological target: T5, mouse c-Met (SiNo. Biological Inc, 50622-M08H) (mouse, UniProt P16056 25-931); experiment: ELISA, antigen coated at 2 µg/ml, antibody 6.4 pM to 100 nM, anti-human IgG F(ab')2-HRP, TMB, O.D. at 450 nm [panel Mouse cMet]
T5 construct: extracellular domain
Protocol: (§2) Particularly, mouse c-Met (SiNo. Biological Inc, 50622-M08H), cynomolgus monkey c-Met (SiNo. Biological Inc, 90304-CO8H), human c-Met (R&D Systems, 358-MT), mouse EGFR (SiNo. Biological Inc, 51091-M08H), cynomolgus monkey EGFR (SiNo. Biological, 90285-008B) and human EGFR (Abcam, 155639) antigens were all divided into a 96-well plate at a concentration of 2 μg/ml, after which the resulting plate was reacted at 4° C. overnight.
(§3) Color development was made by using TMB (Sigma, T4444) solution, wherein its value was measured at an optical density of 450 nm and its ELISA results are shown in FIG. 9.

[6] = biological target: T6, mouse EGFR (SiNo. Biological Inc, 51091-M08H) (mouse, UniProt Q01279 25-647); experiment: ELISA, coated antigen 2 µg/ml
T6 construct: extracellular domain
Protocol: as §2, §3

[7] = biological target: T7, cynomolgus monkey c-Met ECD (SiNo. Biological, 90304-CO8H) (cynomolgus monkey, UniProt A0A2K5UM36 25-932); experiment: SPR (BIAcore), antibody captured by anti-human IgG Fc, antigen as analyte, 1:1 Langmuir
T7 construct: not shown: The vendor's tag
Protocol: (§4) The antibodies were diluted in HBS-EP buffer (0.01 M HEPES pH 7.4, 0.15 M NaCl, 3 mM EDTA and 0.005% (v/v) Surfactant P20) at a concentration of 1-2 μg/ml, after which the resulting antibodies were injected into a CM5 chip with an anti-human Ig Fc fixed thereto at a flow rate of 30 μl/min for 10-120 seconds, and then captured in a range of 150-200 RU. Each antigen was used after being diluted at 10, 5, 2.5, 1.25, 0.625, 0.3125 and 0.15625 nM, after which the resulting antigens were sequentially injected from a lower concentration. Then, the resulting antigens were injected at a flow rate of 30 μl/min for 5 minutes to carry out binding, after which a running buffer was injected thereinto for 10-15 minutes to carry out a dissociation. 15 μl of 10 mM Glycine-HCl (pH 1.5) was used to revive the chip.

[8] = biological target: T8, human c-Met ECD (ACROBiosystems, MET-H5227) (human, UniProt P08581 25-932); experiment: as above
T8 construct: extracellular domain; Bought protein
Protocol: as §4

[9] = biological target: T1, human VEGF R2 Fc chimera (R&D systems, …); experiment: indirect ELISA, hu8C4 at 6.000 nM
Protocol: as §1

[10] = biological target: T2, human IGF-I R (R&D systems, 391-GR-050); experiment: indirect ELISA, hu8C4 at 6.000 nM
Protocol: as §1

[11] = biological target: T3, human PDGF Rβ Fc chimera (R&D systems, …); experiment: indirect ELISA, hu8C4 at 6.000 nM
Protocol: as §1

[12] = biological target: T4, human MSP R/Ron (R&D systems, …); experiment: indirect ELISA, hu8C4 at 6.000 nM
Protocol: as §1

B1: hu8C4 (IgG1 humanized antibody having a hinge region of SEQ ID NO: 38 in hu8C4-1) (antibody, V domains shown)
VH: EVQLVESGGGLVQPGGSLRLSCAASGYTFSDYYINWVRQAPGKGLEWIGEIFPGSGNTHFSARFKGRATLSADKSKNTAYLQMNSLRAEDTAVYYCAGGDYGFLYWGQGTLVTVSS
VL: DIQMTQSPSSLSASVGDRVTITCGASENIYGALNWYQQKPGKAPKLLIYGATNLADGVPSRFSGSGSGRDFTFTISSLQPEDIATYYCQNVLSSPYTFGQGTKVEIK
notes: light chain detected with anti-human kappa; also called anti-c-Met antibody hu8C4; hu8C4 monospecific antibody
A450 nm-A570 nm [1]: -0.01 A450 nm-A570 nm | A450 nm-A570 nm [2]: 0 A450 nm-A570 nm | A450 nm-A570 nm [3]: -0.01 A450 nm-A570 nm | A450 nm-A570 nm [4]: 0 A450 nm-A570 nm | binding result [5]: no binding (tested: 100 nM) | binding result [6]: no binding | Kd [7]: 0.462 nM | koff [7]: 0.000345 s⁻¹ | kon [7]: 747000 M⁻¹ s⁻¹ | Kd [8]: 0.317 nM | koff [8]: 0.000215 s⁻¹ | kon [8]: 677000 M⁻¹ s⁻¹ | A450 nm-A570 nm [9]: -0.01 A450 nm-A570 nm | A450 nm-A570 nm [10]: 0 A450 nm-A570 nm | A450 nm-A570 nm [11]: -0.01 A450 nm-A570 nm | A450 nm-A570 nm [12]: 0 A450 nm-A570 nm
